Key:
recombinant human IL-1α [1] = target: T1, recombinant human IL-1α (human, UniProt P01583 113-271); experiment: cell-based or functional assay
T1 sequence: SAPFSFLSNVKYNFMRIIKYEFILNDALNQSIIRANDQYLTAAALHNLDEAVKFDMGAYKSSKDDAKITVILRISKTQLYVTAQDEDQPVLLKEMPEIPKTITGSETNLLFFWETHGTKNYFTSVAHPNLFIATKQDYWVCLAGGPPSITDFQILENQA

recombinant human IL-1α [2] = target: T1, recombinant human IL-1α; experiment: SPR (Biacore 3000), saturating binding
Experimental: (§1) The association and dissociation rate constants, kon (M-1s-1) and koff (s-1) were determined under a continuous flow rate of 25 ml/minute. […] The equilibrium dissociation constant (M) of the reaction between DVD-Ig molecule and rhIL1α/β was then calculated from the kinetic rate constants by the following formula: KD=koff/kon. Aliquots of rhIL1α/β samples were also simultaneously injected over a blank reference and reaction CM surface to record and subtract any nonspecific binding background to eliminate the majority of the refractive index change and injection noise. Surfaces were regenerated with two subsequent […] injections of 10 mM Glycine (pH 1.5) at a flow rate of […]. The anti-Fc antibody immobilized surfaces were completely regenerated and retained their full capture capacity over twelve cycles. The apparent stoichiometry of the captured DVD-Ig-rhIL1α/β complex was calculated under saturating binding conditions (steady-state equilibrium) using the following formula: […]
(§2) The affinity of the two DVD-Ig binding proteins to hIL-1 as compared to the affinity of chimeric antibodies to hIL-1 was similar as indicated by the evaluation of the stoichiometry to IL-1. Both chimeric antibodies, being bivalent monospecific, bound to IL-1α and IL-1β on Biacore with a stoichiometry of 1.6 and 1.7, respectively. This is common for an IgG due to inter-molecular interference when antibodies are immobilized densely on the Biacore sense chip resulting in stoichiometry being in the range from 1.5 to 2.0.

recombinant human IL-1α [3] = target: T1, recombinant human IL-1α; experiment: SPR (Biacore 3000), binder captured via goat anti-human IgG Fc
Experimental: (§3) Approximately, 5000 RU of goat anti-human IgG Fcγ fragment specific polyclonal antibody (Pierce Biotechnology Inc, Rockford, Ill.) diluted in 10 mM sodium acetate (pH 4.5) was directly immobilized across a CM5 research grade biosensor chip using a standard amine coupling kit according to manufacturer's instructions and procedures at […]. Unreacted moieties on the biosensor surface were blocked with ethanolamine. Modified carboxymethyl dextran surface in flowcell 2 and 4 was used as a reaction surface. Unmodified carboxymethyl dextran without goat anti-human IgG in flow cell 1 and 3 was used as the reference surface. For kinetic analysis, rate equations derived from the 1:1 Langmuir binding model were fitted simultaneously to association and dissociation phases of all ten injections (using global fit analysis) using the Bioevaluation 4.0.1 software. Purified DVD-Ig samples were diluted in HEPES-buffered saline for capture across goat anti-human IgG Fc specific reaction surfaces and injected over reaction matrices at a flow rate of […]. The association and dissociation rate constants, kon (M-1s-1) and koff (s-1) were determined under a continuous flow rate of 25 ml/minute. […] The equilibrium dissociation constant (M) of the reaction between DVD-Ig molecule and rhIL1α/β was then calculated from the kinetic rate constants by the following formula: KD=koff/kon. Aliquots of rhIL1α/β samples were also simultaneously injected over a blank reference and reaction CM surface to record and subtract any nonspecific binding background to eliminate the majority of the refractive index change and injection noise. Surfaces were regenerated with two subsequent […] injections of 10 mM Glycine (pH 1.5) at a flow rate of […]. The anti-Fc antibody immobilized surfaces were completely regenerated and retained their full capture capacity over twelve cycles. The apparent stoichiometry of the captured DVD-Ig-rhIL1α/β complex was calculated under saturating binding conditions (steady-state equilibrium) using the following formula: […]

murine IL-1α [4] = target: T2, murine IL-1α (mouse, UniProt P01582 115-270); experiment: cell-based or functional assay
T2 sequence (looked up): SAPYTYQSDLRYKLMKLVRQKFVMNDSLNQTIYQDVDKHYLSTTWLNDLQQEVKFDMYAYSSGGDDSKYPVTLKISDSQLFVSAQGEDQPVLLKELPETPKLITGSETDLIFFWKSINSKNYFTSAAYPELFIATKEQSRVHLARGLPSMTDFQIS

murine IL-1β [5] = target: T3, murine IL-1β (mouse, UniProt P10749 118-269); experiment: cell-based or functional assay
T3 sequence (looked up): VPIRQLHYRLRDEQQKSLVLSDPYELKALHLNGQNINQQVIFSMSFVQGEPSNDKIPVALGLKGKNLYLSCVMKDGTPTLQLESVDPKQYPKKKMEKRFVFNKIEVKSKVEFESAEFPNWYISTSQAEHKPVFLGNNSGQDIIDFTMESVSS

murine IL-1α [6] = target: T2, murine IL-1α; experiment: affinity, method not named for this table (Biacore elsewhere)
murine IL-1β [7] = target: T3, murine IL-1β; experiment: as above
recombinant human IL-1α [8] = target: T1, recombinant human IL-1α; experiment: SPR (Biacore)
recombinant human IL-1α [9] = target: T1, recombinant human IL-1α; experiment: cell-based or functional assay; remark: listed apart in the source
recombinant human IL-1α [10] = target: T1, recombinant human IL-1α; experiment: cell-based or functional assay; remark: listed apart in the source
recombinant human IL-1α [11] = target: T1, recombinant human IL-1α; experiment: SPR (Biacore), mAb captured via goat anti-mouse IgG
recombinant human IL-1β [12] = target: T4, recombinant human IL-1β (human, UniProt P01584 117-269); experiment: cell-based or functional assay
recombinant human IL-1β [13] = target: T4, recombinant human IL-1β; experiment: SPR (Biacore 3000), saturating binding
Experimental: as §1, §2

recombinant human IL-1β [14] = target: T4, recombinant human IL-1β; experiment: SPR (Biacore 3000), binder captured via goat anti-human IgG Fc
Experimental: as §3

B1: chimeric 3D12.E3 antibody (antibody, V domains shown)
VH: QIQLVQSGPELKKPGETVKISCKASGYTFRNYGMNWVKQAPGKDLKRMAWINTYTGESTYADDFKGRFAFSLETSASTAYLQINNLKNEDTATYFCARGIYYYGSSYAMDYWGQGTSVTVSS
VL: NIQMTQTTSSLSASLGDRVTISCRASQDISNCLNWYQQKPDGTVKLLIYYTSRLHSGVPSRFSGSGSGTDYSLTISNLEQEDIATYFCQQGKTLPYAFGGGTKLEINR
notes: Murine variable domains on human Cγ1 and human Cκ constant regions (3D12.E3-VH-hCγ1, 3D12.E3-VL-hCκ); also called 3D12.E3-Ch; 3D12.E3 chimeric Ab
For B1, which “Potency (IC50) M, MRC-5 bioassay” value (recombinant human IL-1α [1]) is on record?
The value was 0.7 nM.

And the Stoichiometry (recombinant human IL-1α [2])?
Its Stoichiometry is 1.6.

And the Kd (recombinant human IL-1α [3])?
Its Kd is 1.34 nM.

And the koff (recombinant human IL-1α [3])?
Its koff is 0.000552 s⁻¹.

And the kon (recombinant human IL-1α [3])?
Its kon is 412000 M⁻¹ s⁻¹.

B2: mIL-1α/β DVD-Ig binding protein (bispecific antibody, mouse IgG2a, kappa)
heavy: EVQLQQSGPELVKPGTSVKMSCKTSGYTFTSYVMHWVKQKPGQGLEWIGYIIPYNDNTKYNEKFKGKATLTSDKSSSTAYMELSSLTSEDSAVYYCARRNEYYGSSFFDYWGQGTTLTVSSAKTTAPSVYPLAPQVILKESGPGILQPSQTLSLTCSFSGFSLSTYGTAVNWIRQPSGKGLEWLAQIGSDDRKLYNPFLKSRITLSEDTSNSQVFLKITSVDTEDSATYYCANGVMEYWGLGTSVTVSSAKTTAPSVYPLAPVCGDTTGSSVTLGCLVKGYFPEPVTLTWNSGSLSSGVHTFPAVLQSDLYTLSSSVTVTSSTWPSQSITCNVAHPASSTKVDKKIEPRGPTIKPCPPCKCPAPNLLGGPSVFIFPPKIKDVLMISLSPIVTCVVVDVSEDDPDVQISWFVNNVEVHTAQTQTHREDYNSTLRVVSALPIQHQDWMSGKEFKCKVNNKDLPAPIERTISKPKGSVRAPQVYVLPPPEEEMTKKQVTLTCMVTDFMPEDIYVEWTNNGKTELNYKNTEPVLDSDGSYFMYSKLRVEKKNWVERNSYSCSVVHEGLHNHHTTKSFSRTPGK
light: DIQMTQSPASLSASVGETVTITCRGSGILHNYLVWYQQKQGKSPQLLVYSAKILADGVPSRFSGSGSGTQYSLKINSLQPEDFGSYYCQHFWSTPFTFGSGTKLEIKRADAAPTVSIFPPSIVMTQTPKFLLVSAGDRVTITCKASQSVNHDVAWYQQMPGQSPKLLIYFASNRYTGVPDRFTGSGYGTDFTFTISTVQAEDLAVYFCQQDYSSPYTFGGGTKLEIKRADAAPTVSIFPPSSEQLTSGGASVVCFLNNFYPKDINVKWKIDGSERQNGVLNSWTDQDSKDSTYSMSSTLTLTKDEYERHNSYTCEATHKTSTSPIVKSFNRNEC
notes: V(anti-mIL-1β 10G11)-linker-V(anti-mIL-1α 9H10)-murine constant region (Cγ2a and Cκ); also called mDVD4-Ig; murine IL-1α/β DVD4-Ig
Which “IC50 (M), in vitro potency” value (murine IL-1α [4]) does the source give for B2 here?
Its value is 2e-09 M.

And the “IC50 (M), in vitro potency” value (murine IL-1β [5])?
Its value is 8e-10 M.

What about the Kd (murine IL-1α [6]) of the same binder?
Its Kd is 0.766 nM.

And the Kd (murine IL-1β [7])?
The Kd was 0.694 nM.

B3: murine monoclonal antibody 18F4.2C8 (antibody, V domains shown)
VH: EVQLQQSGAELVKPGASVKLSCTASGLNIKDTYMHWLKQRPEQGLEWIGRIDPANGNAKYDPRFLGKATITADTSSNTAYLQLSSLTSEDTAVYYCARGDGNFHFDYWGQGTTLTVSS
VL: DIVMTQSQRFMSTSVGDRVSVTCKASQNVGTNIAWYQQKPGQSPRALIYSASYRYSGVPDRFTGSGSGTDFTLTISNVQSVDLAEYFCQQYTRYPLTFGGGTKLEIKR
notes: Murine hybridoma mAb, anti-hIL-1α
Which results are given for B3?
Kd (recombinant human IL-1α [8]): 0.595 nM; IC50 (M), MRC-5 bioassay (inhibition of IL-8 production) (recombinant human IL-1α [9]): 8.9e-11 M; IC50 (M), MRC-5 bioassay (recombinant human IL-1α [10]): 3.3e-10 M; Kd (recombinant human IL-1α [11]): 0.578 nM

B4: chimeric 13F5.G5 antibody (antibody, V domains shown)
VH: QVQLQQSGAELVRPGSSVKISCKASGYAFSSYWMNWVKQRPGQGLEWIGQIYPGDGDTNYNGKFKGKATLTADKSSSTSYMQLSGLTSEDSAMYFCVRFPTGNDYYAMDYWGQGTSVTVSS
VL: NIVLTQSPASLAVSLGQRATISCRASESVDSYGNSYMHWYQQKPGQPPKLLIYLASNLESGVPARFSGSGSRTDFTLTIDPVEADDAATYYCQQNNEDPFTFGSGTKLEIKR
notes: Murine variable domains on human Cγ1 and human Cκ constant regions (13F5.G5-VH-Cγ1, 13F5.G5-VL-Cκ); also called 13F5.G5-Ch; 13F5.G5 chimeric Ab
With B4 as the binder, how does the “Potency (IC50) M, MRC-5 bioassay” value (recombinant human IL-1β [12]) read?
Its value is 0.53 nM.

What about the Stoichiometry (recombinant human IL-1β [13]) of the same binder?
Its Stoichiometry is 1.7.

What about the Kd (recombinant human IL-1β [14]) of the same binder?
Its Kd is 0.462 nM.

And the koff (recombinant human IL-1β [14])?
The koff was 0.000654 s⁻¹.

What about the kon (recombinant human IL-1β [14]) of the same binder?
Its kon is 1.41e+06 M⁻¹ s⁻¹.

B5: murine monoclonal antibody 6H3.1A4.3E11 (antibody, V domains shown)
VH: QVQLQQPGAELVRPGASVKLSCKASGYTFTTYWMNWVKQRPEQGLEWIGRIDPYDSETLYSQKFKDTAILTVDKSSSTAYMQLSSLTSEDSAVYYCARYGFDYWGQGTTLTVSS
VL: QIVLTQSPALMSASPGEKVTMTCSASSSVNYMYWYQQKPRSSPKPWIYLTSNLASGVPARFSGSGSGTSYSLTISSMEAEDAATYYCQQWNSNPYTFGGGTKLEMKR
notes: as for B3
For B5, which Kd (recombinant human IL-1α [8]) is on record?
Its Kd is 0.354 nM.

What about the “IC50 (M), MRC-5 bioassay (inhibition of IL-8 production)” value (recombinant human IL-1α [9]) of the same binder?
Its value is 2.4e-10 M.

And the “IC50 (M), MRC-5 bioassay” value (recombinant human IL-1α [10])?
Its value is 2.4e-10 M.

What about the Kd (recombinant human IL-1α [11]) of the same binder?
Its Kd is 0.354 nM.

B6: mouse anti-mouse IL-1β monoclonal antibody 10G11 (antibody, V domains shown)
VH: EVQLQQSGPELVKPGTSVKMSCKTSGYTFTSYVMHWVKQKPGQGLEWIGYIIPYNDNTKYNEKFKGKATLTSDKSSSTAYMELSSLTSEDSAVYYCARRNEYYGSSFFDYWGQGTTLTVSS
VL: DIQMTQSPASLSASVGETVTITCRGSGILHNYLVWYQQKQGKSPQLLVYSAKILADGVPSRFSGSGSGTQYSLKINSLQPEDFGSYYCQHFWSTPFTFGSGTKLEIKR
notes: Mouse mAb from IL-1αβ double KO mice; also called anti-IL-1β (10G11)
B6 was tested. Which “IC50 (M), in vitro potency” value (murine IL-1β [5]) did it give?
Its value is 3.7e-10 M.

What about the Kd (murine IL-1β [7]) of the same binder?
Its Kd is 0.23 nM.

B7: mouse anti-mouse IL-1α monoclonal antibody 9H10 (antibody, V domains shown)
VH: QVILKESGPGILQPSQTLSLTCSFSGFSLSTYGTAVNWIRQPSGKGLEWLAQIGSDDRKLYNPFLKSRITLSEDTSNSQVFLKITSVDTEDSATYYCANGVMEYWGLGTSVTVSS
VL: SIVMTQTPKFLLVSAGDRVTITCKASQSVNHDVAWYQQMPGQSPKLLIYFASNRYTGVPDRFTGSGYGTDFTFTISTVQAEDLAVYFCQQDYSSPYTFGGGTKLEIKR
notes: Mouse mAb from IL-1αβ double KO mice; also called anti-IL-1α (9H10)
For B7, which “IC50 (M), in vitro potency” value (murine IL-1α [4]) is on record?
Its value is 2e-10 M.

And the Kd (murine IL-1α [6])?
The Kd was 0.173 nM.
